Measured values from patent US20250326839A1 (VIGIL NEUROSCIENCE, published 2025).
Positions count from the first letter of the chain named.

T1: human TREM2 (human, UniProt Q9NZC2 19-174, limits assumed)
T1 construct: also called triggering receptor expressed on myeloid cells 2
T1 sequence: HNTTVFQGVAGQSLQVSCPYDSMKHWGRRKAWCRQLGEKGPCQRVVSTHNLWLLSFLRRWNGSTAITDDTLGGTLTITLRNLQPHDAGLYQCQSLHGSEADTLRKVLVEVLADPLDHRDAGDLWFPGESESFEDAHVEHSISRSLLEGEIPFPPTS

B1: V40 (antibody, V domains shown)
VH: EVQLVQSGAEVKKPGESLKISCKGSGYSFGSYWIAWVRQMPGKGLEWMGIIYPGDSDVRYSPSFQGQVTISADKSISTAYLQWSSLKASDTAMYFCARQRTFYYDSSDYSDYWGQGTLVTVSS
VL: DIQMTQSPSSVSASVGDRVTITCRASQGISSWLAWYQQKPGKAPKLLIYAASSLQLGVPSRFSGSGSGTDFTLTISSLQPEDFATYFCQQADRFPRTFGQGTKLEIK
notes: also called 6E7 variant V40
B2: V50 (antibody, V domains shown)
VH: B1 VH with I50V, V58T, S110L
VL: B1 VL with L54R, L56N, R93S, F94L
notes: also called 6E7 variant V50
B3: V86 (antibody, V domains shown)
VH: B1 VH with I34L, V58T, Q65E, Q99S, S110F
VL: B1 VL with L54R, L56N, R93S
notes: also called 6E7 variant V86
B4: V84 (antibody, V domains shown)
VH: B1 VH with S28G, G30T, V58T
VL: B1 VL with A50G, L56N, R93S
notes: also called 6E7 variant V84
B5: V75 (antibody, V domains shown)
VH: B1 VH with G30T, V58T, Q99G, S110F
VL: B1 VL with L56A, R93S, F94Y
notes: also called 6E7 variant V75
B6: V88 (antibody, V domains shown)
VH: B1 VH with V58T, S110F
VL: B1 VL with S53R, L56R, R93S, F94S
notes: also called 6E7 variant V88
B7: V53 (antibody, V domains shown)
VH: B1 VH with G30T, V58T, S63H, S110F
VL: B1 VL with L56N, R93S
notes: also called 6E7 variant V53
B8: V89 (antibody, V domains shown)
VH: B1 VH with G30T, V58T, S110F
VL: B1 VL with L56N, R93S, F94H
notes: also called 6E7 variant V89
B9: V51 (antibody, V domains shown)
VH: B1 VH with G30T, Q99G, S110F, Y112N
VL: B1 VL with L54R, L56N, R93S
notes: also called 6E7 variant V51
B10: V60 (antibody, V domains shown)
VH: B1 VH with S28H, G30T
VL: B1 VL with L56R, Q89G, R93S
notes: also called 6E7 variant V60; LV-108/HV-108
B11: V63 (antibody, V domains shown)
VH: B1 VH with G30R, V58T, Q99S, S110F
VL: B1 VL with L56R
notes: also called 6E7 variant V63
B12: V49 (antibody, V domains shown)
VH: B1 VH with G30N, I50T, V58T, Y60L, Q99S, S110F
VL: B1 VL with L54R, L56N, R93S, F94Y
notes: also called 6E7 variant V49; LV-106/HV-106
B13: V73 (antibody, V domains shown)
VH: B1 VH with V58T, S63G, Q99G, S110F
VL: B1 VL with L54R, L56N, R93S, F94Y
notes: also called 6E7 variant V73; LV-106/HV-109
B14: V52 (antibody, V domains shown)
VH: B1 VH with G30E, V58T, Q99G, S110F
VL: B1 VL with L56R
notes: also called 6E7 variant V52; LV-107/HV-107
B15: V76 (antibody, V domains shown)
VH: B1 VH with V58T, S63E
VL: B1 VL with L56K, T69R, R93S
notes: also called 6E7 variant V76; LV-109/HV-110
B16: V65 (antibody, V domains shown)
VH: B1 VH with G30T, V58T, Q99S, S110F
VL: B1 VL with L56N, R93S
notes: also called 6E7 variant V65
B17: V77 (antibody, V domains shown)
VH: B1 VH with G30T, V58T, S110F
VL: B1 VL with L54R, L56N, R93S
notes: also called 6E7 variant V77
B18: V74 (antibody, V domains shown)
VH: B1 VH with G30A, Q99G, S110F
VL: B1 VL with R93S
notes: also called 6E7 variant V74
B19: V87 (antibody, V domains shown)
VH: B1 VH with G30R, S63D, Q99S, S110F
VL: B1 VL with L56W, R93S
notes: also called 6E7 variant V87
B20: V64 (antibody, V domains shown)
VH: B1 VH with G30Q, V58T, Q99G, S110F
VL: B1 VL with Q55A, L56N, R93S, F94Y
notes: also called 6E7 variant V64
B21: V62 (antibody, V domains shown)
VH: B1 VH with V58T, S61A, D108G, S110F
VL: B1 VL with L56R, Q89G, R93S
notes: also called 6E7 variant V62
B22: V85 (antibody, V domains shown)
VH: B1 VH with G30R, I50T, V58T, Q99S, S110F
VL: B1 VL with L54R, L56N, R93S
notes: also called 6E7 variant V85
B23: V41 (antibody, V domains shown)
VH: B1 VH with G30T, I50T, V58T, S110F
VL: B1 VL with L56N, R93S
notes: also called 6E7 variant V41
B24: V72 (antibody, V domains shown)
VH: B1 VH with G30T, A35G, V58T, Q99G, S110F
VL: B1 VL with Q55V, L56N, R93S, F94Y
notes: also called 6E7 variant V72
B25: V61 (antibody, V domains shown)
VH: B1 VH with G30S, V58T, S61N, Q99G, S110F
VL: B1 VL with Q55V, L56N, R93S, F94L
notes: also called 6E7 variant V61
B26: V48 (antibody, V domains shown)
VH: B1 VH with Q99M, S110F
VL: B1 VL with L56T, R93S, F94L
notes: also called 6E7 variant V48

Assays:
human TREM2 [1] = biological target: T1, human TREM2; assay: 2nd screen, 2 nM
human TREM2 [2] = biological target: T1, human TREM2; assay: 2nd screen, 10 nM
human TREM2 [3] = biological target: T1, human TREM2; assay: 1st screen, 10 nM Ab

Binder	Binding Signal (human TREM2 [1])	Binding Signal (human TREM2 [2])	Binding Signal (human TREM2 [3])
B1	3.41 fold over 6E7 parental antibody	4.16 fold over 6E7 parental antibody	4.48 fold over 6E7 parental antibody
B2	3.39 fold over 6E7 parental antibody	4.16 fold over 6E7 parental antibody	4.1 fold over 6E7 parental antibody
B3	5.17 fold over 6E7 parental antibody	5.02 fold over 6E7 parental antibody	4.8 fold over 6E7 parental antibody
B4	1.45 fold over 6E7 parental antibody	1.62 fold over 6E7 parental antibody	1.44 fold over 6E7 parental antibody
B5	3.74 fold over 6E7 parental antibody	4.52 fold over 6E7 parental antibody	4.64 fold over 6E7 parental antibody
B6	5.57 fold over 6E7 parental antibody	5.3 fold over 6E7 parental antibody	4.92 fold over 6E7 parental antibody
B7	0.66 fold over 6E7 parental antibody	1.17 fold over 6E7 parental antibody	1.25 fold over 6E7 parental antibody
B8	0.94 fold over 6E7 parental antibody	1.46 fold over 6E7 parental antibody	1.33 fold over 6E7 parental antibody
B9	1.83 fold over 6E7 parental antibody	3.18 fold over 6E7 parental antibody	2.81 fold over 6E7 parental antibody
B10	3.35 fold over 6E7 parental antibody	3.63 fold over 6E7 parental antibody	3.26 fold over 6E7 parental antibody
B11	4.91 fold over 6E7 parental antibody	3.71 fold over 6E7 parental antibody	3.76 fold over 6E7 parental antibody
B12	5.02 fold over 6E7 parental antibody	6.58 fold over 6E7 parental antibody	6.51 fold over 6E7 parental antibody
B13	4.17 fold over 6E7 parental antibody	5.44 fold over 6E7 parental antibody	5.12 fold over 6E7 parental antibody
B14	1.78 fold over 6E7 parental antibody	3.09 fold over 6E7 parental antibody	3 fold over 6E7 parental antibody
B15	4.34 fold over 6E7 parental antibody	4.93 fold over 6E7 parental antibody	4.57 fold over 6E7 parental antibody
B16	1.29 fold over 6E7 parental antibody	2.75 fold over 6E7 parental antibody	2.05 fold over 6E7 parental antibody
B17	0.83 fold over 6E7 parental antibody	1.38 fold over 6E7 parental antibody	1.43 fold over 6E7 parental antibody
B18	2.54 fold over 6E7 parental antibody	4.01 fold over 6E7 parental antibody	3.94 fold over 6E7 parental antibody
B19	4.86 fold over 6E7 parental antibody	3.93 fold over 6E7 parental antibody	3.84 fold over 6E7 parental antibody
B20	4.88 fold over 6E7 parental antibody	5.48 fold over 6E7 parental antibody	5.41 fold over 6E7 parental antibody
B21	1.87 fold over 6E7 parental antibody	2.89 fold over 6E7 parental antibody	2.49 fold over 6E7 parental antibody
B22	5.41 fold over 6E7 parental antibody	5.37 fold over 6E7 parental antibody	5.41 fold over 6E7 parental antibody
B23	0.58 fold over 6E7 parental antibody	1.72 fold over 6E7 parental antibody	1.74 fold over 6E7 parental antibody
B24	2.5 fold over 6E7 parental antibody	4.01 fold over 6E7 parental antibody	3.64 fold over 6E7 parental antibody
B25	3.63 fold over 6E7 parental antibody	5.22 fold over 6E7 parental antibody	5.08 fold over 6E7 parental antibody
B26	2.3 fold over 6E7 parental antibody	2.54 fold over 6E7 parental antibody	2.42 fold over 6E7 parental antibody
